{"source": "paper PMC3173608", "about": "(Structure(London, England:1993), 2011)", "proteins": {"B1": {"name": "CsgG_(16-277) (domain or fragment)", "chain": "CLTAPPKEAARPTLMPRAQSYKDLTHLPAPTGKIFVSVYNIQDETGQFKPYPASNFSTAVPQSATAMLVTALKDSRWFIPLERQGLQNLLNERKIIRAAQENGTVAINNRIPLQSLTAANIMVEGSIIGYESNVKSGGVGARYFGIGADTQYQLDQIAVNLRVVNVSTGEILSSVNTSKTILSYEVQAGVFRFIDYQRLLEGEVGYTSNEPVMLCLMSAIETGVIFLINDGIDRGLWDLQNKAERQNDILVKYRHMSVPPES"}}, "target": "the molecule itself", "assay": "SEC", "data": [{"protein": "B1", "values": [{"measurement": "stoichiometry N", "result": 8, "unit": "protomers"}]}]}
